EP4796557A1 (Unovel (Shanghai) Biopharma Co., Ltd., dated 2025)

Experiments:
[1] = target: T1, antigen protein TF (UniProt P13726 33-251, limits assumed); assay: BLI (Fortebio), antibody on ProA sensor, 1:1 model
T1 construct: Soluble TF used in ELISA coating and BLI; also called TF protein; Tissue Factor

[2] = target: T1, antigen protein TF; assay: ELISA, TF coated at 1 µg/mL, HRP-Protein A detection
[3] = target: T2, Tissue Factor on MDA-MB-231 cells (UniProt P13726 33-295, limits assumed); assay: flow cytometry on MDA-MB-231 cells, Alexa Fluor 488 anti-human IgG
T2 construct: whole, on cells
T2 sequence (P13726 33-295 limits assumed): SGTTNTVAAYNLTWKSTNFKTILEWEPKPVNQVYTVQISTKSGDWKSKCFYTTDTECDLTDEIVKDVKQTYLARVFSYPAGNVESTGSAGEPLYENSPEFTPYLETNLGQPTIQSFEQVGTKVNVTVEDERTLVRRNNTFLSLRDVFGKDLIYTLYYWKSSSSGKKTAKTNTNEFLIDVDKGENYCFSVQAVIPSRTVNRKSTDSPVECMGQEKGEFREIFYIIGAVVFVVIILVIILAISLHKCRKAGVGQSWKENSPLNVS

T1 sequence (P13726 33-251 limits assumed): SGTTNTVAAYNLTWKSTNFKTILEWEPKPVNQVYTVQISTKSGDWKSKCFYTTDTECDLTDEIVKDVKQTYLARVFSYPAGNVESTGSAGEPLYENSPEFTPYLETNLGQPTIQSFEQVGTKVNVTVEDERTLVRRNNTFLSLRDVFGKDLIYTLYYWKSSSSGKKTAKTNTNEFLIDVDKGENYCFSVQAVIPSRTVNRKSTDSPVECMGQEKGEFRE

Kd [1] [pM]	koff [1] [s⁻¹]	kon [1] [M⁻¹ s⁻¹]	EC50 [2] [µg/mL]	EC50 [3] [µg/mL]	Binder
430	0.000169	392000	0.0155	1.13	h1849-H2L1 (antibody, human IgG1, kappa, V domains shown, also called humanized anti-TF antibody) VH: EVQLVESGGGVVQPGRSLRLSCAASGFTFSDYNMAWIRQAPGKGLEWVAAIIYDGTRTYYRDSVKGRFTISRDNSKSTLYLQMDSLRAEDTAVYYCATGDSYTNFAYWGQGTLVTVSS VL: EIVLTQSPTFLSASVGDRVTITCRASSSLSYMHWYQQKPGTSPKLLIYETSKLQSGVPSRFSGSGSGTSFTLTIDSLQPEDFATYYCQQGNSYPRTFGGGTKVEIKR
–	< 1e-07	324000	0.0191	2.3	h1849-H3L3 (antibody, human IgG1, kappa, V domains shown, also called humanized anti-TF antibody) VH: EVQLVESGGGVVQPGRSLRLSCAASGFTFSDYNMAWIRQAPGKGLEWVAAIIYDGTRTYYRDSVKGRFTISRDNSKSTLYLQMNSLRAEDTAVYYCATGDSYTNFAYWGQGTLVTVSS VL: EIVLTQSPTSLSASVGDRVTITCRASSSLSYMHWYQQKPGTSPKLLIYETSKLESGVPSRFSGSGSGTDFTLTIDSLQPEDFATYYCQQGNSYPRTFGGGTKVEIKR
